US20220324970A1 (Janssen / Centocor, published 2022)
Read-outs that look alike come from different tables or passages of the source.

T1: hpIgR_D2-D3
T1 construct: HIS-tagged construct from HEK293 cells; also called human pIgR extracellular domain 2-domain 3 (D2-D3); hD2-D3
T1 HIS-tagged domain construct: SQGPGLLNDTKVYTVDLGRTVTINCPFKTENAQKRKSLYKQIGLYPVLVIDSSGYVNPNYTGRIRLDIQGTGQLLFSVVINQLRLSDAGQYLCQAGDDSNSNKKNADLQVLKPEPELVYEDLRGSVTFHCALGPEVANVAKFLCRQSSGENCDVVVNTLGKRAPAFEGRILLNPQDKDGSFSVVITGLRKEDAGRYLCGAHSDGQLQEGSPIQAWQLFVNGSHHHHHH

T2: hpIgR domain-1 with teleost fish CDR2 (hD1 tCDR2) (human, UniProt P01833 19-127, limits assumed)
T2 construct: CDR-swapped hpIgR domain-1 mutant, HIS-tagged, made in HEK293 cells; not shown: HIS tag
T2 chain: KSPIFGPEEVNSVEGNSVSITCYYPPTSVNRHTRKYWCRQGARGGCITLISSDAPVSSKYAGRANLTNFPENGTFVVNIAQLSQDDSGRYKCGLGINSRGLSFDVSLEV

T3: hpIgR_D3
T3 construct: HIS-tagged construct from HEK293 cells; also called human pIgR extracellular domain 3 (D3); hD3
T3 HIS-tagged domain construct: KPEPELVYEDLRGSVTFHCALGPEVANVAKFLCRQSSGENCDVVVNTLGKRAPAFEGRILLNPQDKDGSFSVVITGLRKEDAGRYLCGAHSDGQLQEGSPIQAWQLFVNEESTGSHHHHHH


Legend:
[1] = target: T1, hpIgR_D2-D3; test: ECL (MSD) heat map, HIS-tagged construct captured via anti-HIS, anti-human-Fc detection
[2] = target: T2, hpIgR domain-1 with teleost fish CDR2 …; test: BLI, HIS-tagged construct on anti-HIS biosensors
Description: (§1) Bio-layer Interferometry was performed as follows. […] Data were collected with Octet Data Acquisition version 7.1.0.87 (ForteBio) and analyzed using Octet Data Analysis version 7.1 (ForteBio). To measure binding kinetics between VHH-mono-Fc molecules and HIS-tagged pIgR proteins, VHH-mono-Fc was immobilized on amine-reactive generation-2 (ARG2) biosensors according to manufacturer's instructions and increasing concentrations of pIgR proteins were exposed to sensor-immobilized VHH. In some cases, HIS-tagged pIgR proteins were immobilized on anti-HIS biosensors and exposed to increasing concentrations of VHH-mono-Fc molecules. Association and dissociation rates were measured by the shift in wavelength (nm). […] All reactions were performed at 25° C. in PBS.
(§2) (Full-length hpIgR ECD was purchased from R&D Systems.) The five constructs (D1-D2, D1, D1_tCDR1, D1_tCDR2, D1_tCDR3) were expressed and purified from HEK293 cells using immobilized metal ion affinity chromatography. Three hpIgR domain-1 CDR mutants (D1_tCDR1, D1_tCDR2, D1_tCDR3) contain respective teleost fish CDR on a hpIgR domain-1 framework. His-tagged pIgR constructs were immobilized on anti-HIS biosensors and binding of VHH-mono-Fc molecules to pIgR constructs were measured by bio-layer interferometry.

[3] = target: T4, human pIgR extracellular domain (ECD) (human, UniProt P01833 19-638); test: ECL (MSD), hpIgR-ECD coated, anti-VHH detection
T4 construct: also called hpIgR ECD
Description: To check whether VHH recognizes a buried epitope on pIgR, EC₅₀ values were measured for VHH-mono-Fc molecules binding to hpIgR-ECD protein by electrochemiluminescence using two different detection antibodies, an anti-Fc antibody and an anti-VHH antibody. pIgR ECD (10 μg/ml in PBS) was coated on high-bind MSD plates for 2 hours at RT with 1000 rpm, incubated with blocking buffer for 1 hour at RT, incubated with VHH-mono-Fc molecules (increasing concentrations in PBS) for 2 hours at RT with 1000 rpm, washed 3× with PBT, incubated with ruthenylated secondary antibody (2 μg/ml in PBS) for 1 hour at RT with 1000 rpm, washed 3× with PBT and read plates in 40 ul reading buffer using the MSD imager. EC50 was calculated by fitting log VHH concentration versus log ECLU in Prism (Graphpad). The increase in EC₅₀ (>50-fold) due to anti-VHH detection was used as a measure to determine whether VHH recognized buried epitope on pIgR.

[4] = target: T5, human pIgR, full-length, on cells (human, UniProt P01833 19-764); test: flow cytometry on MDCK-hpIgR cells; summary table, repeats Table 1
T5 construct: whole, on cells; Used for the flow cytometry EC50 values (MDCK-hpIgR) and for the transcytosis read-outs; also called hpIgR; cell-surface hpIgR
Description: (§3) Flow Cytometry was performed as follows. To test whether VHH-mono-Fc molecules recognize cell-surface hpIgR, Madin-Darby canine kidney (MDCK) cells engineered to express full-length hpIgR were used. Cells were cultured in Dulbecco's modified Eagle's medium containing 10% fetal calf serum at 37° C. with 5% CO₂. Cells were split into equal fractions (≈70,000 cells) and incubated with increasing concentrations of VHH-mono-Fc molecules for 30 min at 4 C. […] Cells were washed twice with cold staining buffer, resuspended in running buffer and analyzed with an iQue Screener (IntelliCyt Corporation). Binding was assessed by RL1 (A647) Geomeans from the live cell population and EC50 was calculated by fitting log VHH concentration versus MFI in Prism (Graphpad).

[5] = target: T5, human pIgR, full-length, on cells; test: as above; remark: listed apart in the source
Description: as §3

[6] = target: T6, human pIgR extracellular domain 1-domain 2 (D1-D2) (human, UniProt P01833 19-240); test: ECL (MSD); headed 'Anti-Fc' on the sheet, but its ECD values are the anti-VHH values of Table 2, so anti-VHH detection
T6 construct: HIS-tagged construct made in HEK293 cells

[7] = target: T7, human pIgR extracellular domain 1 (D1) (human, UniProt P01833 19-127); test: as above
T7 construct: HIS-tagged construct made in HEK293 cells; also called hpIgR domain-1
Target sequence in this assay (P01833 other isoform, or with tags, fused parts or gaps limits assumed): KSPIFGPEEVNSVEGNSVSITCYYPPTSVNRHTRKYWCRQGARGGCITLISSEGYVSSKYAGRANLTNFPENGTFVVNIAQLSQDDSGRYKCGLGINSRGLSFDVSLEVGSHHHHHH

[8] = target: T6, human pIgR extracellular domain …; test: BLI, relative to full-length hpIgR ECD
Target sequence in this assay (P01833 other isoform, or with tags, fused parts or gaps limits assumed): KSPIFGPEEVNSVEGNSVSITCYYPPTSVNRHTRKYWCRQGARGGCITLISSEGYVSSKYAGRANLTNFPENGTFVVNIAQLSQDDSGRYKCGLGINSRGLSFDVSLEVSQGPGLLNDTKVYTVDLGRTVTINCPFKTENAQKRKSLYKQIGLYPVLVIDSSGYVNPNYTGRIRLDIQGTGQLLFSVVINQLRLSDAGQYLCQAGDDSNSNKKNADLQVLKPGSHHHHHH
Description: as §1, §2

[9] = target: T7, human pIgR extracellular domain 1 (D1); test: BLI, relative to full-length hpIgR ECD
Description: as §1, §2

[10] = target: T8, hpIgR domain-1 with teleost fish CDR3 (hD1 tCDR3) (human, UniProt P01833 19-127, limits assumed); test: BLI, relative to full-length hpIgR ECD
T8 construct: CDR-swapped hpIgR domain-1 mutant, HIS-tagged, made in HEK293 cells; not shown: HIS tag

[11] = target: T4, human pIgR extracellular domain (ECD); test: BLI, relative to full-length hpIgR ECD
Description: as §1, §2

[12] = target: T9, hpIgR domain-1 with teleost fish CDR1 (hD1 tCDR1) (human, UniProt P01833 19-127, limits assumed); test: BLI, relative to full-length hpIgR ECD
T9 construct: CDR-swapped hpIgR domain-1 mutant, HIS-tagged, made in HEK293 cells; not shown: HIS tag
Target sequence in this assay (P01833 other isoform, or with tags, fused parts or gaps limits assumed): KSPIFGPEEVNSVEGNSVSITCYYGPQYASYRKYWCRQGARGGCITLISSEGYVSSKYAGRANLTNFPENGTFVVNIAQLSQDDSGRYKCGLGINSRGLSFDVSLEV

[13] = target: T4, human pIgR extracellular domain (ECD); test: BLI (Octet), VHH-mono-Fc and hpIgR ectodomain
[14] = target: T6, human pIgR extracellular domain …; test: ECL (MSD), Log ECLU against Log [VHH] nM, anti-Fc detection (first EC50 column)
[15] = target: T7, human pIgR extracellular domain 1 (D1); test: as above
[16] = target: T3, hpIgR_D3; test: ECL (MSD) heat map, HIS-tagged construct captured via anti-HIS, anti-human-Fc detection;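 also: VHH-mono-Fc molecules tested at 100 µg/ml for 2 h on captured His-tagged pIgR constructs (10 µg/ml), read-out as electrochemiluminescence units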
Description: (§4) A meso-scale discovery (MSD) platform was used for conducting epitope mapping and epitope burial studies. To test the binding of VHH-mono-Fc molecules to purified pIgR protein constructs, Streptavidin MSD plates were coated with a biotinylated anti-HIS antibody (2 μg/ml in PBS) for 1 hour at RT with 1000 rpm, washed 3× with PBT (PBS+0.1% Tween-20), incubated with blocking buffer for 1 hour at RT, incubated with His-tagged pIgR proteins (10 μg/ml in PBS) for 2 hours at RT with 1000 rpm, washed 3× with PBT, incubated with VHH-mono-Fc molecules (100 μg/ml in PBS) for 2 hours at RT with 1000 rpm, washed 3× with PBT, incubated with ruthenylated-anti-human-Fc antibody (2 μg/ml in PBS) for 1 hour at RT with 1000 rpm, washed 3× with PBT and read plates in 40 ul reading buffer using the MSD imager. ECLU values were plotted as a heatmap.
(§5) Binding of VHH-mFc molecules were tested to immobilized pIgR constructs by the electrochemiluminescence method.

[17] = target: T10, human pIgR extracellular domain 5 (D5) (human, UniProt P01833 460-565); test: as above
T10 construct: HIS-tagged construct made in HEK293 cells; also called hpIgR domain 5
Description: as §4, §5

[18] = target: T11, human pIgR extracellular domain 2 (D2) (human, UniProt P01833 128-242); test: as above
T11 construct: HIS-tagged construct made in HEK293 cells; also called hpIgR domain 2
Description: as §4, §5

[19] = target: T6, human pIgR extracellular domain …; test: BLI, HIS-tagged pIgR construct on anti-HIS biosensors
Description: as §1, §2

[20] = target: T9, hpIgR domain-1 with teleost fish CDR1 …; test: as above
Description: as §1, §2

[21] = target: T5, human pIgR, full-length, on cells; test: cell-based or functional assay

T4 sequence (P01833 other isoform, or with tags, fused parts or gaps): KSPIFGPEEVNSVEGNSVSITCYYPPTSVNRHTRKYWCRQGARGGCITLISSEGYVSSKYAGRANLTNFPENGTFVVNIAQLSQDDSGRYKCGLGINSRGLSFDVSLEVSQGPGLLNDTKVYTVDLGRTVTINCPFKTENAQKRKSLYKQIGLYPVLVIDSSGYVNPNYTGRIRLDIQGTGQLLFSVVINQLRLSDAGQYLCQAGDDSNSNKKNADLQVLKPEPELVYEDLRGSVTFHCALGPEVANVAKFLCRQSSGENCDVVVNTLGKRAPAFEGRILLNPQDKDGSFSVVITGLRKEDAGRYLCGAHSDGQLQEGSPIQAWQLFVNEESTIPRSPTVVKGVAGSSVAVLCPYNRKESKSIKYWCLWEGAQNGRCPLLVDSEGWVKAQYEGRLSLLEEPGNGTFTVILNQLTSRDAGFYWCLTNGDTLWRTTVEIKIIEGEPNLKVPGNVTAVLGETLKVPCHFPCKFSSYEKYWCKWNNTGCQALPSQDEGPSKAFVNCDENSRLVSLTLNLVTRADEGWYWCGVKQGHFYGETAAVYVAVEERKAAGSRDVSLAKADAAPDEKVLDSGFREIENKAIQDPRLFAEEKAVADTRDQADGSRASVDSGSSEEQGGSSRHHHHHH
T5 sequence (P01833 19-764): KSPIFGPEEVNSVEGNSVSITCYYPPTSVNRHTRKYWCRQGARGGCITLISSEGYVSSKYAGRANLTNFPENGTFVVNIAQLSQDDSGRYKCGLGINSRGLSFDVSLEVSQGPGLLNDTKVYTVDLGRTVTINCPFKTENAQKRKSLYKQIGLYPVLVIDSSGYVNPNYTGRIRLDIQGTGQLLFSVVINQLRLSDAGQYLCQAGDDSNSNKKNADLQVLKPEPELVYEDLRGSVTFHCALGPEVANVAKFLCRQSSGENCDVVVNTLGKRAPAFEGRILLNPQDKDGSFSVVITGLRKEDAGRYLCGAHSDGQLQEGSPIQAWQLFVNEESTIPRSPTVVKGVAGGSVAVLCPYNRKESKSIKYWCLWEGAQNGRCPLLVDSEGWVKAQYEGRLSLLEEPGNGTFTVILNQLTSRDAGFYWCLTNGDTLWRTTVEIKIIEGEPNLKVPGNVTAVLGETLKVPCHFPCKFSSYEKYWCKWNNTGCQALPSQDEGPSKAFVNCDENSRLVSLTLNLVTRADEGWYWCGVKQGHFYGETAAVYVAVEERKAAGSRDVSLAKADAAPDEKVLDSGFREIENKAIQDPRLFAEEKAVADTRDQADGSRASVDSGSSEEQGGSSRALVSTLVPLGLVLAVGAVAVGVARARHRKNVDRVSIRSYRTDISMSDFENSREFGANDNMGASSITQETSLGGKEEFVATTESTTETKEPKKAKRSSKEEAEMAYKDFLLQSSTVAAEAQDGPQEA
T8 sequence (P01833 other isoform, or with tags, fused parts or gaps limits assumed): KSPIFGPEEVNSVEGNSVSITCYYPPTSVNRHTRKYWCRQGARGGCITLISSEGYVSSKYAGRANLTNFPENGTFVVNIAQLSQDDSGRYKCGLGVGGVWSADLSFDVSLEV
T10 sequence (P01833 other isoform, or with tags, fused parts or gaps limits assumed): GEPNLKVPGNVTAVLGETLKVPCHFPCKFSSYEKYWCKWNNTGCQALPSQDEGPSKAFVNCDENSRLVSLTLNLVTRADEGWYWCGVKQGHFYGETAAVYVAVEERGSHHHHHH

Row | Binder | binding result [1] | binding result [2] | EC50 [3] | EC50 [4] | EC50 [5] | EC50 [6] | EC50 [7] | Fold change in KD [8] | Fold change in KD [9] | Fold change in KD [10] | Fold change in KD [11] | Fold change in KD [12] | Kd [13] | EC50 [14] | EC50 [15] | binding result [16] | binding result [17] | binding result [18] | Kd [19] | Kd [20] | further results
1 | VHH3-linker-mono-Fc protein (Fc fusion, made in CHO cells; also called VHH3-mono-Fc; hpIgR_021) QLQLVESGGGLVQPGGSLRLSCAASGSIFSINVMGWYRQAPGKQRELVARINGGGITHYAESVKGRFTISRDNAKNTVYLQMNSLKPEDTAAYYCKADVFGSSGYVETYWGQGTQVTVSSEPKTPKPQPQPQLQPQPNPTTESKSPKSPAPELLGGPSVFLFPPKPKDTLMISRTPEVTCVVVDVSHEDPEVKFNWYVDGVEVHNAKTKPREEQYNSTYRVVSVLTVLHQDWLNGKEYKCKVSNKALPAPIEKTISKAKGQPREPQVYTKPPSREEMTKNQVSLSCLVKGFYPSDIAVEWESNGQPENNYKTTVPVLDSDGSFRLASYLTVDKSRWQQGNVFSCSVMHEALHNHYTQKSLSLSPGK | no binding (tested: 100 ug/ml (single concentration)) | no binding | 28.6 nM | 6.4 nM | 6.4 nM | 13.7 nM | 17.6 nM | 1.3 fold | 0.8 fold | 0.8 fold | 1 fold | 7.7 fold | 5 nM | 1.2 nM | 3.1 nM | no binding (tested: 100 ug/ml (single concentration)) | no binding (tested: 100 ug/ml (single concentration)) | no binding (tested: 100 ug/ml (single concentration)) | 13.3 nM | 77 nM | For. Trans. (Fold Incr.) [21]: 1 fold; Rev. Trans (Fold Incr.) [21]: 1 fold
2 | VHH2-linker-mono-Fc protein (Fc fusion, also called VHH2-mono-Fc; mpIgR_338) EVQVVESGGGLVQAGGSLKLACAAPGLTFSSYRMGWFRQAPGQEREFVAAIDWNGRGTYYRYYADSVKGRSTISRDNAKNTVYLQMNSLKPEDTAVYYCAATTVLTDPRVLNEYATWGQGTQVTVSSEPKTPKPQPQPQLQPQPNPTTESKSPKSPAPELLGGPSVFLFPPKPKDTLMISRTPEVTCVVVDVSHEDPEVKFNWYVDGVEVHNAKTKPREEQYNSTYRVVSVLTVLHQDWLNGKEYKCKVSNKALPAPIEKTISKAKGQPREPQVYTKPPSREEMTKNQVSLSCLVKGFYPSDIAVEWESNGQPENNYKTTVPVLDSDGSFRLASYLTVDKSRWQQGNVFSCSVMHEALHNHYTQKSLSLSPGK | no binding (tested: 100 ug/ml (single concentration)) | no binding | 4 nM | 6.3 nM | 6.3 nM | 1.8 nM | 8.1 nM | 1 fold | 0.7 fold | 0.7 fold | 1 fold | 1 fold | 21 nM | 1.5 nM | 6.8 nM | no binding (tested: 100 ug/ml (single concentration)) | no binding (tested: 100 ug/ml (single concentration)) | no binding (tested: 100 ug/ml (single concentration)) | 23 nM | 21.3 nM | For. Trans. (Fold Incr.) [21]: 21 fold; Rev. Trans (Fold Incr.) [21]: 5.7 fold
